Assay: soluble on expression in E. coli; label from the status in PepcDB or PDB records

| Sequence | soluble on expression in E. coli |
| --- | --- |
| MAHHHHHHMRGMWATLRLFRCDRNFTALNRGNGVYNIQSVASRDCALCHSQRAVKHRSLSPDDPFGEKSASDDPVDGFYGAWSNINVDAFANAAASEEVRMAHFGPEWSRFTTIGRLSVKKMNESGSSASSGSEDCGMASQHPLGAEELHMRELRERRKVLERNYSSYDEYVAKELGLSEVDDCDNACGLQSEDPEIVADGEEAEDNDDADEDADNVPLPQFMRRSGCEQENDTGVNIYSSDQQQQQQMGGVPANTVNEGHVPQRRGTLHPPEPLAQVVFCQLGEPHGDSELPREDPLHWDTEEVILWIRRMEAAQCVLSSGSLACDSLVMEDPSMQEAFRMARIDGDYLLKNTVPATMFQVMRRWHLRRHEIVLAVLKEQQRRGIDSHEINTSIFDDPIMRGILDSGRAKLDEVVLMVTPMLVQETICQGYLYCR | not soluble |
| MSLLEQLDKNIAASGGLIVSCQPVPGSPLDKPEIVAAMALAAEQAGAVAVRIEGIDNLRMTRSLVSVPIIGIIKRDLDESPVRITPFLDDVDALAQAGAAIIAVDGTARQRPVAVEALLARIHHHHLLAMADCSSVDDGLACQRLGADIIGTTMSGYTTPDTPEEPDLPLVKALHDAGCRVIAEGRYNSPALAAEAIRYGAWAVTVGSAITRLEHICGWYNDALKKAAS | not soluble |
| MIGLLFLFAACQEKVTSPAKVDTLPSIFPDYVGVTIPSTIAPLNFRVTDDGVEAVDVVIAGTKGKPVRLNGRSVDIPAKQWHELLESNKGDSIEVKVSVRQGKKWKEYRPFPIYVSPFPIDYGLVYRLLAPGYEVYSKMGIYERELSTFRQTPLFENTQVTAACINCHAFNRTEPTPSSVHVRGGHGATVIDTGDRLEFLDTKADGQLSACVYPYWHPSGEYIAYSVNKTNQAFHLGGKKPIEVFDQASDVVVYHPRSHRILTTPLLSTASFETFPAFSPDGRTLYFCSAEQKEMPVRYKDVKYSLCSIAFHPEDGTFGDRIDTLISARTLDKSISFPKPSFDGKYLMFTLSDYGNFSIWHKEADLWLLDLKTGTYRNLEEVNSDDTESYHNWSSNSHWFVFSSRRGDGLYTRLYISSVDGQGRIGKPFLLPQQDPYTFYDQLIYSYNVPEFVSAPVQWDKREMAKGLMSKERVKVKLEHHHHHH | not soluble |
| MKALIFAAGFGERMRPLTEHTPKPLLSVGGAPLIVWHLRKLAALGVDEAVINTSWLAEQFPQLLGDGSAYGLRLTYSYEGTTPLETGGGMLHALPLLGDAPFLLINGDIWTDFDFSRLSHAPKGLAELVLVDRPSYAARADFALDADGKVRVDLPATLTYSGIGMYRPALLRDWQSVNGPLPEQVGTAPRFALAPILRAKMAQGLIDGIHHPGRWTDVGTPQRLAALDAQLLGDGGLEHHHHHH | not soluble |
| SNAMNHTADNCIFCKIIDGQILCSKVYEDEHVLAFLDISQVTKGHTLVIPKVHKQDIFALTPEIASHIFSVVPKIANAIKAEFNPVGFNLLNNNGEKAGQTVFHFHLHLIPRYGENDGFGAVWKSHQNEYTMENLQNIASTIANSVK | soluble |
| SNAMTTPIRVVVWNEFRHEKKDEQVRAIYPEGMHTVIASYLAEAGFDAATAVLDEPEHGLTDEVLDRCDVLVWWGHIAHDEVKDEVVERVHRRVLEGMGLIVLHSGHFSKIFKKLMGTTCNLKWREADEKERLWVVAPGHPIVEGIGPYIELEQEEMYGEFFDIPEPDETIFISWFEGGEVFRSGCTFTRGKGKIFYFRPGHETYPTYHHPDVLKVIANAVRWAAPVNRGEIVFGNVKPLEPIKAKQGGVTQ | soluble |
| MGSDKIHHHHHHMFCKVMKIGISCHHTYGGSGAVATELGKALAMKGHTVHFFSQAAPFRLGLYSRNIYCHEIEAMNYPLFETPYHSLALASKIAEVAFYEKLDVVHAHYAIPHAISAMLARQMLEEKCPAAECFRIVTTLHGTDITIVGADRSMSDAVRLAINKSDGVTAVSGYLRDETIRMFTPRKKIEVIHNFVDTAVFKRLPGRRDLLGLDGGKVVIHISNFRPVKRIMDVLAVFESIRREIPATLLLVGDGPDRSEAETWVRNYGIGDRVRFLGKLDDIVPLLSIADLMLMPSNVESFGLAALEAMACGVPVVVTDAGGFPEFVRQGVDGFRHPHGDIEGMSRSALSILRDDEVWQRFSGAAANQAGRFKTALKVKEYEAFYRRLIDEARERKAQ | not soluble |
| MSLELIEENDFDAIYIGNSKVMIKDYRGFVATLRILREKFPNAVLITDLEPFFYPLAVYLGVDAFDVRSLKIYSYEGLGFTPFSPVIWDRPNDPIEFAREMIKIIKIAIQEGKLRYLVENFLPTVMNVGILRIADKEHGDYLEKYTPVHDKTVVFISEHSISRPEVFRWRKRIEERFEPPKGIDLLLIFPCSAKKPYSRSRSHMMYRKVMKEALGEKVHRVHELVVTSPYGVVPREWEWLAKYDIVVTGHWSESEVRFAGELLAQTIEKYPDIPIVAHVEGGYREAVKYAMELVNRDVIFTAVGSSTISKESLDKLKKTLKEFDLRDAEKDYRRYRFYENVRKVFDYYFGLGAGEAVLPENAQIVGSKMLRLIVNNSQTGTFQEGVISVTPFGMQRIYDKLNSYWVEVDFDIRGDVFAAGVERADEGIRPNDIVGIVRDGRVVAVGRAVLSGEEMVRAKKGIAVRVRKRVKNKEGHHHHHH | not soluble |
| MSLITTRTARQCGQADYGWLQARYTFSFGHYFDPKLLGYASLRVLNQEVLAPGAAFQPRTYPKVDILNVILDGEAEYRDSEGNHVQASAGEALLLSTQPGVSYSEHNLSKDKPLTRMQLWLDACPQRENPLIQKLALNMGKQQLIASPEGAMGSLQLRQQVWLHHIVLDKGESANFQLHGPRAYLQSIHGKFHALTHHEEKEGHHHHHH | not soluble |
| MGSDKIHHHHHHMMVEESLQLQNELLNKLVQGGGLKELVDSAAHFVQREVVIANTSNRVLESTFSEGFSQGEFFAVLPLQPPVPGRVQLQAGEKKAEALVVELSHDAKRLGFLFICDPGADEDNRLKVLIHQARNVFVLELQKKAELLENSRNYQDAFLFDLLYGNIEDNADIIARGKLWGWDLSLPHVVTAFELEDYESYSQDHYLVTTLHDIIQSVAQSLDKTVILMEKNEEVVLALPVEARKRRDFKAYLNMIINQVLAQAEERLAPRVIRVGVGRRYEQPSELFRSYQEAKVAVKLSALLKDKGPIVYFRELGVERILYSHDKQELLEFYREILAELEAQDKQKNELIETLENYLVYHCDLKATADALFLHPNSLRYRLKRIEEILDLDLEDFDTRVSLVIAFKIKHLIHSKERL | not soluble |
| MSVIYQTTITRIGQSAKEALGEQMLITFREGAPADIEEFCFIHCHGELTGALQPGARCELGQHCYPVTAVGSVAEQNLRELGHITLRFDGLREAEFPGTVHVAGPVPDDIAPGCILTFVA | not soluble |
| MGSDKIHHHHHHMGYRLTRENLNTLFHKLKEDYLIYAPKRLIGKGAFSDTDRVRYDKINNVEEIEFDVKSDFSFKEILLPISETLFFFTEDSVKEAEGPKKGAIIFLRSCDINAVKRLDQIYLKNGFEDHYYKRIREKVKFVLMPCKTSFENCFCVSMGTNQADMYDASVELREEHFYIDNKEEKWKEFLKEVSLEELEVKPSFVMENKTKVKVPEGITTKIFKSKMWDEYDSRCINCGRCNFVCPTCTCFSMQDIFYTDNGKAGERRRVWASCMVDGFTNVAGGGSYRSKNGQRMRFKVMHKVYDYKKRNGYHMCVGCGRCDDICPEYISFSNCINKLKGAIKEVEDNE | not soluble |
| VGKQLAALAALVGACMLAAGCTNVVDGTAVAADKSGPLHQDPIPVSALEGLLLDLSQINAALGATSMKVWFNAKAMWDWSKSVADKNCLAIDGPAQEKVYAGTGWTAMRGQRLDDSIDDSKKRDHYAIQAVVGFPTAHDAEEFYSSSVQSWSSCSNRRFVEVTPGQDDAAWTVADVVNDNGMLSSSQVQEGGDGWTCQRALTARNNVTIDIVTCAYSQPDLVAIGIANQIAAKVAKQ | not soluble |
| MKRFNVLKYIRTTKANIQTIAMPLTTKPLSLKINAALFDVDGTIIISQPAIAAFWRDFGKDKPYFDAEHVIHISHGWRTYDAIAKFAPDFADEEYVNKLEGEIPEKYGEHSIEVPGAVKLCNALNALPKEKWAVATSGTRDMAKKWFDILKIKRPEYFITANDVKQGKPHPEPYLKGRNGLGFPINEQDPSKSKVVVFEDAPAGIAAGKAAGCKIVGIATTFDLDFLKEKGCDIIVKNHESIRVGEYNAETDEVELIFDDYLYAKDDLLKW | soluble |
| MLSVRTPLATIADQQQLQLSPLKRLTLADKENTPPTLSSTRVLASKAARRIFQDSAELESKAPTNPSVEDEPLLRENPRRFVVFPIEYHDIWQMYKKAEASFWTAEEVDLSKDIQHWEALKPDERHFISHVLAFFAASDGIVNENLVERFSQEVQVTEARCFYGFQIAMENIHSEMYSLLIDTYIKDPKEREYLFNAIETMPCVKKKADWALRWIGDKEATYGERVVAFAAVEGIFFSGSFASIFWLKKRGLMPGLTFSNELISRDEGLHCDFACLMFKHLVHKPAEQRVREIITNAVRIEQEFLTEALPVKLIGMNCTLMKQYIEFVADRLMLELGFNKIFRVENPFDFMENISLEGKTNFFEKRVGEYQRMGVMSNSTENSFTLDADF | soluble |
| MGSDKIHHHHHHMQFDNLLSRADDGTLQVLLGNAAVRLIKLLDPSLVTPSRLREILMELHTPASLLLTKDSRAMLLDLLRPEQAKILATIMQVPLTGDIFETLKKTSIRHGSNRERALFDFFELELPQPEDSVQSSSLELAVSNYPLFAHQRIAARKVKNYFKQEPRRVLLHMPTGSGKTRTAMNIIADHLRSVEPTIVVWLAYSEELCEQAATEFQKAWQCLGDRQVSLYRFWGEHEIDVDKLEDGIVVAGLSKVYNRTKQSIQFINRLGKVSSLVIIDEAHQAIAETYKLVLDALVVPYENTALLGLTATPGRTWSDINVDTELSEFFAKNKVTLEVSGYSNPVDYLISEEYLAKPNFRSLFYKNGLKLTQKDLERIQQELEIPQHILEQLADDEQRNLSIIIEVEELAKRHQRILIFGISIKHSKLLATVLRARGLQANVVTGDTPLLERTRLINSFKDDSDETKIICNYGVLTTGFDAPRTSAAVIARPTKSLVLYSQMVGRAIRGVKAGGNVTAEIVTVVDSALRGFGSLEEAFSNWEDVWHKEKI | not soluble |
| MNIENPAPILDQDPYVQAYPETRAFWEAAAQGRFVLPRCRDCGQSHWYPRGLCPLCGSTALEWQDAAGTGTLYSYSVMRAAPQPYAIAYVQLAEGPLVLTNIVDSDLERLRIGQPVRVAFQRTQEGRSAPVFVALAD | not soluble |
| MSLKKRIPTLLATMIATALYSQQGLAADLASQCMLGVPSYDRPLVQGDTNDLPVTINANHAKGDYPDDAVFTGSVDIMQGNSRLQADEVQLHQKEAPGQPEPVRTVDALGNVHYDDNQVILKGPKGWANLNTKDTNVWEGDYQMVGRQGRGKADLMKQRGENRYTILDNGSFTSCLPGSDTWSVVGSEIIHDREEQVAEIWNARFKVGPVSIFYSPYLQLPVGDKRRSGFLIPNAKYTTTNYFEFYLPYYWNIAPNMDATITPHYMHRRGNIMWENEFRYLSQAGAGLMELDYLPSDKVYEDEHPNDDSSRRWLFYWNHSGVMDQVWRFNVDYTKVSDPSYFNDFDNKYGSSTDGYATQKFSVGYAVQNFNATVSTKQFQVFSEQNTSSYSAEPQLDVNYYQNDVGPFDTRIYGQAVHFVNTRDDMPEATRVHLEPTINLPLSNNWGSINTEAKLLATHYQQTNLDWYNSRNTTKLDESVNRVMPQFKVDGKMVFERDMEMLAPGYTQTLEPRAQYLYVPYRDQSDIYNYDSSLLQSDYSGLFRDRTYGGLDRIASANQVTTGVTSRIYDDAAVERFNISVGQIYYFTESRTGDDNITWENDDKTGSLVWAGDTYWRISERWGLRGGIQYDTRLDNVATSNSSIEYRRDEDRLVQLNYRYASPEYIQATLPKYYSTAEQYKNGISQVGAVASWPIADRWSIVGAYYYDTNANKQADSMLGVQYSSCCYAIRVGYERKLNGWDNDKQHAVYDNAIGFNIELRGLSSNYGLGTQEMLRSNILPYQNTLEGHHHHHH | soluble |

From the DeepSol protein solubility set
